Patent US20250206792

Key:
[1] = target: T1, Bovine Alpha-s1-casein (SEQ ID NO: 1)
T1 chain: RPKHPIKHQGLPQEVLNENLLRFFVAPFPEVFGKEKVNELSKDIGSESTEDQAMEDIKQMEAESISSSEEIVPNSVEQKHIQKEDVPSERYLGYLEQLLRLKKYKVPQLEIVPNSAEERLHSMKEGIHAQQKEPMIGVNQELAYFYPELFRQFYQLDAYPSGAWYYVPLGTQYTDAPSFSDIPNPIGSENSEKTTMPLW

[2] = target: T2, Bovine Beta-casein (SEQ ID NO: 3)
T2 chain: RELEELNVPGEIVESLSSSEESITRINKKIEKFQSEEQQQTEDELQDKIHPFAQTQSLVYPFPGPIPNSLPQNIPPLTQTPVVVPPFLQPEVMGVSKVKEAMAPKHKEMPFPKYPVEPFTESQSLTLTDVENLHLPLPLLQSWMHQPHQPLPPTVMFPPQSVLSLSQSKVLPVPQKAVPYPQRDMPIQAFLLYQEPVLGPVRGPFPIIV

B1: PrkD (Bacillus subtilis 168 | BSU_02030) (SEQ ID NO: 7) (protein)
chain: MALKLLKKLLFDRPLKNGVILNHQYKIEECLGMGGYGLVYLCTDILAQTPYVLKQLRPTKAKKEKEKVRFQQEIKLLKNIHHPQIPGFIDEFIIDGQAYYVMQFIEGENIEELLFFRKQPFTELMALQLISQLLEIIEYLHDRLIFHSDIRTPNIIINDGRLCLIDFGLAKQLTPEEMEEIKVRKQDDFFDLGETLLFLLYSQYKGKKKKNGTWLEELTLTKEVTLLLKRLLGIEEEYQHTASIREDLNRAIQSVT
Q: Which “number of phosphorylated sites similar to native phosphorylation sites, MS” value (“number … to native phosphorylation sites, MS” for short) [1] does the source give for B1 here?
A: Its value is “with 9 and 8 sites showing similarity to native phosphorylation sites”.

Q: And the “number of sites phosphorylated, in vitro kinase reaction, MS” value (from here on “number of sites phosphorylated”) [1]?
A: Its value is “PrkD and YabT phosphorylated 13 and 10 sites, respectively”.

Q: What about the “phosphorylation at *S56 (native site), MS grade, in vitro kinase reaction” value (from here on “phosphorylation at *S56 (native site)”) [1] of the same protein?
A: The value was “++”.

Q: What about the “phosphorylation at *S61 (native site), MS grade, in vitro kinase reaction” value [1] of the same protein?
A: The value was “+”.

Q: And the “phosphorylation at *S63 (native site), MS grade, in vitro kinase reaction” value [1]?
A: The value was “+”.

Q: What about the “phosphorylation at *S79 (native site), MS grade, in vitro kinase reaction” value [1] of the same protein?
A: The value was “+”.

Q: What about the “phosphorylation at *S81 (native site), MS grade, in vitro kinase reaction” value [1] of the same protein?
A: Its value is “+”.

Q: What about the “phosphorylation at *S82 (native site), MS grade, in vitro kinase reaction” value [1] of the same protein?
A: Its value is “+”.

Q: And the “phosphorylation at *S83 (native site), MS grade, in vitro kinase reaction” value [1]?
A: Its value is “+”.

Q: What about the “phosphorylation at *S90 (native site), MS grade, in vitro kinase reaction” value [1] of the same protein?
A: The value was “+”.

Q: What about the “phosphorylation at *S130 (native site), MS grade, in vitro kinase reaction” value [1] of the same protein?
A: Its value is “+++”.

Q: And the “phosphorylation at S103, MS grade, in vitro kinase reaction” value (from here on “phosphorylation at S103, MS grade”) [1]?
A: Its value is “+”.

Q: And the “phosphorylation at S137, MS grade, in vitro kinase reaction” value (from here on “phosphorylation at S137, MS grade”) [1]?
A: The value was “+”.

Q: And the “phosphorylation at Y159, MS grade, in vitro kinase reaction” value [1]?
A: The value was “+”.

Q: What about the “phosphorylation at Y161, MS grade, in vitro kinase reaction” value [1] of the same protein?
A: Its value is “+”.

Q: And the “number … to native phosphorylation sites, MS” value [2]?
A: Its value is “with 3 sites showing similarity to native phosphorylation sites”.

Q: What about the “number of sites phosphorylated” value [2] of the same protein?
A: Its value is “PrkD and YabT phosphorylated 5 sites each”.

Q: What about the “phosphorylation at *S30 (native site), MS grade, in vitro kinase reaction” value (from here on “phosphorylation at *S30 (native site)”) [2] of the same protein?
A: Its value is “+”.

Q: And the “phosphorylation at *S32 (native site), MS grade, in vitro kinase reaction” value [2]?
A: The value was “+”.

Q: And the “phosphorylation at *S50 (native site), MS grade, in vitro kinase reaction” value [2]?
A: The value was “+”.

Q: What about the “phosphorylation at S337, MS grade, in vitro kinase reaction” value [2] of the same protein?
A: Its value is “+”.

Q: What about the “phosphorylation at T39, MS grade, in vitro kinase reaction” value (from here on “phosphorylation at T39, MS grade”) [2] of the same protein?
A: Its value is “+”.

B2: YabT (GenBank: SPU13583.1) (SEQ ID NO: 5) (protein)
chain: MLNWTPKLQSLSTPFAKLSTAAITPTGPAIREATLQFEKYAQEGACWQMMNDALTSLACSLKPGTTIKGKWNGNTYTLRKQLGKGANGIVYLAETSDGHVALKVSDDSLSITSEVNVLKSFSKAQSVTMGPSFFDTDDAYIPSANTKVSFYAMEYIKGPLLLKYVSDKGAEWIPVLMIQLLSSLSVLHQQGWIFGDLKPDNLIVTGPPARIRCIDVGGTTKEGRAIKEYTEFYDRGYWGYGTRKAEPSYDLFAVAMIMINSVHKKEFKKTNQPKEQLRSLIEGNPLLQKYKKALFSALNGDYQSADEMKKDMLDAGQKAAQRKQPIKASPQPATRQRQQKPRQGKITKTRYTPKQKPAKSGGLFETTLIVISVLALYFAYIIFFLI
Q: For B2, which “number … to native phosphorylation sites, MS” value [1] is on record?
A: The value was “with 9 and 8 sites showing similarity to native phosphorylation sites”.

Q: And the “number of sites phosphorylated” value [1]?
A: The value was “PrkD and YabT phosphorylated 13 and 10 sites, respectively”.

Q: What about the “phosphorylation at *S56 (native site)” value [1] of the same protein?
A: Its value is “+++”.

Q: And the “phosphorylation at *S61 (native site), MS grade, in vitro kinase reaction” value [1]?
A: The value was “++”.

Q: What about the “phosphorylation at *S63 (native site), MS grade, in vitro kinase reaction” value [1] of the same protein?
A: The value was “++”.

Q: What about the “phosphorylation at *S79 (native site), MS grade, in vitro kinase reaction” value [1] of the same protein?
A: Its value is “+++”.

Q: And the “phosphorylation at *S81 (native site), MS grade, in vitro kinase reaction” value [1]?
A: Its value is “+++”.

Q: And the “phosphorylation at *S82 (native site), MS grade, in vitro kinase reaction” value [1]?
A: Its value is “+++”.

Q: What about the “phosphorylation at *S83 (native site), MS grade, in vitro kinase reaction” value [1] of the same protein?
A: Its value is “+++”.

Q: What about the “phosphorylation at *S90 (native site), MS grade, in vitro kinase reaction” value [1] of the same protein?
A: Its value is “++”.

Q: And the “phosphorylation at S103, MS grade” value [1]?
A: Its value is “+”.

Q: What about the “phosphorylation at S137, MS grade” value [1] of the same protein?
A: Its value is “+”.

Q: What about the “number … to native phosphorylation sites, MS” value [2] of the same protein?
A: The value was “with 3 sites showing similarity to native phosphorylation sites”.

Q: What about the “number of sites phosphorylated” value [2] of the same protein?
A: The value was “PrkD and YabT phosphorylated 5 sites each”.

Q: And the “phosphorylation at *S30 (native site)” value [2]?
A: Its value is “++”.

Q: And the “phosphorylation at *S32 (native site), MS grade, in vitro kinase reaction” value [2]?
A: Its value is “++”.

Q: What about the “phosphorylation at *S50 (native site), MS grade, in vitro kinase reaction” value [2] of the same protein?
A: Its value is “++”.

Q: And the “phosphorylation at T39, MS grade” value [2]?
A: The value was “++”.

Q: And the “phosphorylation at T56, MS grade, in vitro kinase reaction” value [2]?
A: The value was “+”.

B3: PrkC (Bacillus subtilis) (SEQ ID NO: 8) (protein)
chain: MSGPVPSRARVYTDVNTHRPREYWDYESHVVEWGNQDDYQLVRKLGRGKYSEVFEAINITNNEKVVVKILKPVKKKKIKREIKILENLRGGPNIITLADIVKDPVSRTPALVFEHVNNTDFKQLYQTLTDYDIRFYMYEILKALDYCHSMGIMHRDVKPHNVMIDHEHRKLRLIDWGLAEFYHPGQEYNVRVASRYFKGPELLVDYQMYDYSLDMWSLGCMLASMIFRKEPFFHGHDNYDQLVRIAKVLGTEDLYDYIDKYNIELDPRFNDILGRHSRKRWERFVHSENQHLVSPEALDFLDKLLRYDHQSRLTAREAMEHPYFYTVVKDQARMGSSSMPGGSTPVSSANMMSGISSVPTPSPLGPLAGSPVIAAANPLGMPVPAAAGAQ
Q: Which number of phosphorylated sites similar to native bovine phosphorylation sites, MS [1] does the source give for B3 here?
A: The number of phosphorylated sites similar to native bovine phosphorylation sites, MS was 2 sites.

Q: What about the “number of sites phosphorylated” value [1] of the same protein?
A: The value was “PKNB and PrkC phosphorylated 6 sites in αs1-casein each”.

Q: And the “phosphorylation at *S56 (native site)” value [1]?
A: Its value is “+”.

Q: What about the “phosphorylation at *S130 (native site), MS grade, in vitro kinase reaction” value [1] of the same protein?
A: Its value is “+”.

Q: And the “phosphorylation at S103, MS grade” value [1]?
A: The value was “+”.

Q: And the “phosphorylation at S137, MS grade” value [1]?
A: The value was “+”.

Q: What about the “phosphorylation at Y109, MS grade, in vitro kinase reaction” value [1] of the same protein?
A: The value was “+”.

Q: What about the “phosphorylation at Y159, MS grade, in vitro kinase reaction” value [1] of the same protein?
A: The value was “+”.

Q: What about the number of phosphorylated sites similar to native bovine phosphorylation sites, MS [2] of the same protein?
A: The number of phosphorylated sites similar to native bovine phosphorylation sites, MS was 1 sites.

Q: What about the “number of sites phosphorylated” value [2] of the same protein?
A: The value was “PKNB and PrkC phosphorylated 2 sites in β-casein each”.

Q: What about the “phosphorylation at *S30 (native site)” value [2] of the same protein?
A: Its value is “+”.

Q: What about the “phosphorylation at T39, MS grade” value [2] of the same protein?
A: The value was “++”.

B4: PKNB1_Cgl2751 (Corynebacterium glutamicum) (SEQ ID NO: 9) (protein)
chain: MYEVLGVIAHGGMGWIYLANDRNVSGRIVVLKGMMAQSSVQDQGTAEAEREFLADITHPGIVKAYNFIDDPRVPGGFIVMEYVNGPSLKDRCKAQPDGVLRVDLAIGYILELLPAMDYLHQRGVVYNDLKPENVIATEDQVKLIDLGAVTGIGAFGYIYGTKGFQAPEVATHGPSISSDIFTIGRTLAALTMPLPVEDGVLAPGIPSPKNSPLLRRHLSFYRLLQRATADDPQHRFRNVSELRTQLYGVLREILAVRDGKQYPPQHSLFSPQRSTFGTKHLVF
Q: What does the source list for B4?
A: number of phosphorylated sites similar to native bovine phosphorylation sites, MS [1]: 1 sites; number of sites phosphorylated, in vitro kinase reaction, MS [1]: PKNB and PrkC phosphorylated 6 sites in αs1-casein each; phosphorylation at *S130 (native site), MS grade, in vitro kinase reaction [1]: +; phosphorylation at S103, MS grade, in vitro kinase reaction [1]: +; phosphorylation at S137, MS grade, in vitro kinase reaction [1]: +; phosphorylation at Y109, MS grade, in vitro kinase reaction [1]: +; phosphorylation at Y159, MS grade, in vitro kinase reaction [1]: +; phosphorylation at Y188, MS grade, in vitro kinase reaction [1]: +; number of phosphorylated sites similar to native bovine phosphorylation sites, MS [2]: 1 sites; number of sites phosphorylated, in vitro kinase reaction, MS [2]: PKNB and PrkC phosphorylated 2 sites in β-casein each; phosphorylation at *S30 (native site), MS grade, in vitro kinase reaction [2]: +; phosphorylation at T39, MS grade, in vitro kinase reaction [2]: +++
